Assay results as given in publication PMC5444859.

What was measured:
[1] = biological target: CASV L-Cterm (C-terminal 326 amino acids of the California Academy of Sciences virus L protein, residues 1721-2046) (California Academy of Sciences virus (CASV)) (UniProt J7HBG8); experiment: SEC
[2] = biological target: CASV L-Cterm (C-terminal 326 amino acids of the California Academy of Sciences virus L protein, residues 1721-2046) (California Academy of Sciences virus (CASV)) (UniProt J7HBG8); experiment: SAXS
[3] = biological target: isolated CASV L-Cterm domain 2 (California Academy of Sciences virus (CASV)); experiment: SAXS

| Substance | stoichiometry N [1] | stoichiometry N [2] | stoichiometry N [3] |
| --- | --- | --- | --- |
| CASV L-Cterm (C-terminal 326 amino acids of the California Academy of Sciences virus L protein, residues 1721-2046) (from UniProt J7HBG8 1721-2046) (domain or fragment) | 2 | 2 |  |
| isolated CASV L-Cterm domain 2 (domain or fragment) |  |  | 2 |
